Measurements taken from the supplement of paper PMC7877785.
± gives the uncertainty stated by the source.

Assay: self-splicing fitness, log relative to wild type (ln ratio); higher = more splicing; Tetrahymena group I intron in knt gene, E. coli kanamycin selection, DiMSum; sequences stand for … in CUCUCU…GGAGGGAAAAGUUAUCAGGCAUGCACCUGGUAGCUAGUCUUUAAACCAAUAGAUUGCAUCGGUUUAAAAGGCAAGACCGUCAAAUUGCGGGAAAGGGGUCAACAGCCGUUCAGUACCAAGUCUCAGGGGAAACUUUGAGAUGGCCUUGCAAAGGGUAUGGUAAUAAGCUGACGGACAUGGUCCUAACCACGCAGCCAAGUCCUAAGUCAACAGAUCUUCUGUUGAUAUGGAUGCAGUUCACAGACUAAAUGUCGGUCGGGGAAGAUGUAUUCUUCUCAUAAGAUAUAGUCGGACCUCUCCUUAAUGGGAGCUAGCGGAUGAAGUGAUGCAACACUGGAGCCGCUGGGAACUAAUUUGUAUGCGAAAGUAUAUUGAUUAGUUUUGGAGUACUCGUGGUCG
Summary of the method: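 Library with all eight P1ex-region intron nucleotides randomised, intron inside the knt kanamycin-resistance gene on pET-22b(+), in E. coli BL21(DE3). Cells grew overnight at 37°C or 30°C on LB agar with or without 25 μg/mL kanamycin (plus 100 μg/mL carbenicillin, 50 μM IPTG, 0.2% rhamnose), in six replicate transformations. Pooled colonies were amplicon-sequenced on Illumina HiSeq 2500. DiMSum fitness is the error-weighted combination of wild-type-normalised replicate fold changes, kanamycin versus none.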

GCUAAGCAAUAUUACGAAAU
self-splicing fitness (ln) (30 °C): -1.64 ± 0.11 | self-splicing fitness (ln) (37 °C): -0.218 ± 0.1

GCUAAGCAAUAUUACGAACC
self-splicing fitness (ln) (30 °C): -0.414 ± 0.15 | self-splicing fitness (ln) (37 °C): 1.05 ± 0.23

GCUAAGCAAUAUUACGACGA
self-splicing fitness (ln) (30 °C): -0.978 ± 0.088 | self-splicing fitness (ln) (37 °C): -0.529 ± 0.1

GCUAAGCAAUAUUACGAGAU
self-splicing fitness (ln) (30 °C): -2.3 ± 0.12 | self-splicing fitness (ln) (37 °C): -1.51 ± 0.14

GCUAAGCAAUAUUACGAGCG
self-splicing fitness (ln) (30 °C): -1.7 ± 0.11 | self-splicing fitness (ln) (37 °C): -0.246 ± 0.12

GCUAAGCAAUAUUACGAUAU
self-splicing fitness (ln) (30 °C): -0.896 ± 0.066 | self-splicing fitness (ln) (37 °C): -0.164 ± 0.094

GCUAAGCAAUAUUACGCGAU
self-splicing fitness (ln) (30 °C): -2.05 ± 0.45 | self-splicing fitness (ln) (37 °C): -0.565 ± 0.25

GCUAAGCAAUAUUACGCUCA
self-splicing fitness (ln) (30 °C): -1 ± 0.11 | self-splicing fitness (ln) (37 °C): -1.52 ± 0.14

GCUAAGCAAUAUUACGGACG
self-splicing fitness (ln) (30 °C): -0.941 ± 0.058 | self-splicing fitness (ln) (37 °C): -0.51 ± 0.074

GCUAAGCAAUAUUACGGAUC
self-splicing fitness (ln) (30 °C): -0.406 ± 0.11 | self-splicing fitness (ln) (37 °C): -0.265 ± 0.17

GCUAAGCAAUAUUACGGAUG
self-splicing fitness (ln) (30 °C): -1.52 ± 0.081 | self-splicing fitness (ln) (37 °C): -0.677 ± 0.12

GCUAAGCAAUAUUACGGCGG
self-splicing fitness (ln) (30 °C): -3.78 ± 0.12 | self-splicing fitness (ln) (37 °C): -2.7 ± 0.15

GCUAAGCAAUAUUACGGCUC
self-splicing fitness (ln) (30 °C): -0.551 ± 0.092 | self-splicing fitness (ln) (37 °C): -0.942 ± 0.098

GCUAAGCAAUAUUACGGGCU
self-splicing fitness (ln) (37 °C): -2.23 ± 0.31

GCUAAGCAAUAUUACGUAAC
self-splicing fitness (ln) (30 °C): -1.39 ± 0.11 | self-splicing fitness (ln) (37 °C): -0.735 ± 0.14

GCUCAGCAAUAUUACGACCU
self-splicing fitness (ln) (30 °C): -0.614 ± 0.2 | self-splicing fitness (ln) (37 °C): -0.401 ± 0.21

GCUCAGCAAUAUUACGACGA
self-splicing fitness (ln) (30 °C): -1.94 ± 0.17 | self-splicing fitness (ln) (37 °C): -1.5 ± 0.18

GCUCAGCAAUAUUACGAGAC
self-splicing fitness (ln) (30 °C): -3.42 ± 0.32 | self-splicing fitness (ln) (37 °C): -0.338 ± 0.2

GCUCAGCAAUAUUACGAGAG
self-splicing fitness (ln) (30 °C): -1.03 ± 0.14 | self-splicing fitness (ln) (37 °C): -0.875 ± 0.14

GCUCAGCAAUAUUACGAGCU
self-splicing fitness (ln) (30 °C): -1.77 ± 0.2 | self-splicing fitness (ln) (37 °C): -2.27 ± 0.35

GCUCAGCAAUAUUACGAGGG
self-splicing fitness (ln) (30 °C): -2.38 ± 0.16 | self-splicing fitness (ln) (37 °C): -2.57 ± 0.25

GCUCAGCAAUAUUACGAGUU
self-splicing fitness (ln) (30 °C): -1.85 ± 0.079 | self-splicing fitness (ln) (37 °C): -0.858 ± 0.09

GCUCAGCAAUAUUACGAUGG
self-splicing fitness (ln) (30 °C): -1.05 ± 0.11 | self-splicing fitness (ln) (37 °C): 0.368 ± 0.13

GCUCAGCAAUAUUACGCACG
self-splicing fitness (ln) (30 °C): -3.19 ± 0.31 | self-splicing fitness (ln) (37 °C): -1.02 ± 0.24

GCUCAGCAAUAUUACGCGAC
self-splicing fitness (ln) (30 °C): -3.49 ± 0.3 | self-splicing fitness (ln) (37 °C): 0.167 ± 0.16

GCUCAGCAAUAUUACGCGCA
self-splicing fitness (ln) (30 °C): -1.77 ± 0.13 | self-splicing fitness (ln) (37 °C): -0.106 ± 0.13

GCUCAGCAAUAUUACGCGCC
self-splicing fitness (ln) (30 °C): -2.16 ± 0.14 | self-splicing fitness (ln) (37 °C): -1.92 ± 0.17

GCUCAGCAAUAUUACGCUAC
self-splicing fitness (ln) (30 °C): -3.26 ± 0.17 | self-splicing fitness (ln) (37 °C): -2.69 ± 0.2

GCUCAGCAAUAUUACGCUGA
self-splicing fitness (ln) (30 °C): -2.82 ± 0.35

GCUCAGCAAUAUUACGGAAG
self-splicing fitness (ln) (30 °C): -2.23 ± 0.09 | self-splicing fitness (ln) (37 °C): -0.736 ± 0.11

GCUCAGCAAUAUUACGGCGU
self-splicing fitness (ln) (30 °C): -0.15 ± 0.062 | self-splicing fitness (ln) (37 °C): 0.324 ± 0.082

GCUCAGCAAUAUUACGGGCA
self-splicing fitness (ln) (30 °C): -1.76 ± 0.17 | self-splicing fitness (ln) (37 °C): -0.69 ± 0.17

GCUCAGCAAUAUUACGGGCU
self-splicing fitness (ln) (30 °C): -4.72 ± 0.38 | self-splicing fitness (ln) (37 °C): -2.63 ± 0.21

GCUCAGCAAUAUUACGGGUA
self-splicing fitness (ln) (30 °C): -0.401 ± 0.077 | self-splicing fitness (ln) (37 °C): -0.454 ± 0.078

GCUCAGCAAUAUUACGGUUC
self-splicing fitness (ln) (30 °C): -0.806 ± 0.065 | self-splicing fitness (ln) (37 °C): 0.0632 ± 0.071

GCUCAGCAAUAUUACGGUUU
self-splicing fitness (ln) (30 °C): -0.112 ± 0.059 | self-splicing fitness (ln) (37 °C): 0.228 ± 0.073

GCUCAGCAAUAUUACGUAUA
self-splicing fitness (ln) (30 °C): -1.73 ± 0.096 | self-splicing fitness (ln) (37 °C): -0.338 ± 0.085

GCUCAGCAAUAUUACGUUAG
self-splicing fitness (ln) (30 °C): -2.79 ± 0.13 | self-splicing fitness (ln) (37 °C): -0.765 ± 0.12

GCUCAGCAAUAUUACGUUUC
self-splicing fitness (ln) (30 °C): -0.455 ± 0.065 | self-splicing fitness (ln) (37 °C): -0.0579 ± 0.091

GCUGAGCAAUAUUACGAAAU
self-splicing fitness (ln) (30 °C): -3.27 ± 0.2 | self-splicing fitness (ln) (37 °C): -2.43 ± 0.22

GCUGAGCAAUAUUACGACGC
self-splicing fitness (ln) (37 °C): -1.7 ± 0.42

GCUGAGCAAUAUUACGAGGA
self-splicing fitness (ln) (30 °C): -2.31 ± 0.16 | self-splicing fitness (ln) (37 °C): -2.48 ± 0.18

GCUGAGCAAUAUUACGAGUC
self-splicing fitness (ln) (37 °C): -2.04 ± 0.25

GCUGAGCAAUAUUACGAUAA
self-splicing fitness (ln) (30 °C): -3.51 ± 0.4 | self-splicing fitness (ln) (37 °C): -3.27 ± 0.35

GCUGAGCAAUAUUACGCAUA
self-splicing fitness (ln) (30 °C): -3.37 ± 0.3 | self-splicing fitness (ln) (37 °C): -1.82 ± 0.17

GCUGAGCAAUAUUACGCCAA
self-splicing fitness (ln) (37 °C): -3.52 ± 0.46

GCUGAGCAAUAUUACGCGGU
self-splicing fitness (ln) (30 °C): -3.6 ± 0.21 | self-splicing fitness (ln) (37 °C): -2.02 ± 0.3

GCUGAGCAAUAUUACGCUCU
self-splicing fitness (ln) (30 °C): -1.12 ± 0.17 | self-splicing fitness (ln) (37 °C): -0.769 ± 0.2

GCUGAGCAAUAUUACGCUGC
self-splicing fitness (ln) (30 °C): -2.56 ± 0.32 | self-splicing fitness (ln) (37 °C): -1.92 ± 0.3
